Data published in the supplement of paper PMC9732359.
± gives the uncertainty stated by the source.

assay: protein stability index of a GFP-peptide fusion (yeast GPS) (PSI 1-4); higher = more stable; sorted into four equal gates, so the index is relative within each strain; conditions: pdr5∆
Method in brief: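 The protein stability index combines read frequencies across sorting gates, each weighted by its gate number and then summed. To obtain those frequencies, a pooled yeast library of GFP fusions to tiled 17-residue yeast protein peptides, on a plasmid also expressing Cherry, was grown to mid-log phase in leucine-free medium. The cells were sorted into four equal gates by GFP/Cherry ratio before plasmid amplification by PCR and Illumina sequencing.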

LNELKAIKDKLEQDLHF [YIL149C/MLP2] and LNENARELEQIKPKIAL [SNF12] are within error of each other in protein stability index: 3.13 ± 0.069 for the first, 3 ± 0.23 for the second.

same assay, conditions: san1∆

LESIQKTKEAVAALKAV [RPL4A] and LESTIAETQGSKVVIDS [IRR1] are within error of each other in protein stability index: 2.82 ± 0.27 for the first, 3.06 ± 0.12 for the second.

Going from LESTKAETDYVDPKRLA [DSN1] to LESYLIVHHPYQSLKQI [SSN8], the protein stability index falls from 3.04 ± 0.053 to 2.29 ± 0.053.

Compared with LETDGVNLSEVMTVPGI [RPO21], LEYMNTARINNRRLFKK [RRI2] is lower in protein stability index: 3.03 ± 0.13 for the first, 2.3 ± 0.083 for the second.

Going from LEYYAMLSKTKVYYFQG [RPL30] to LFAGYTDNVIRVWQVMT [ASC1], the protein stability index falls from 2.09 ± 0.079 to 1.86 ± 0.099.

LFGQSQQPQTNTAPGLG [YGR119C/NUP57] and LFNKPPSTNAQNVNVPS [YOR098C/NUP1] are within error of each other in protein stability index: 3.14 ± 0.16 for the first, 3.03 ± 0.046 for the second.

First: LFPVAAQDSLTVTIASS [RPB8]
Second: LFQELSKVVDDMPSLRL [GRR1]
The protein stability index of the first is lower: 1.32 ± 0.16 for the first, 2.22 ± 0.12 for the second.

Compared with LFQRQKLHEFYLLISKE [IRR1], LFRIFSMSEEFKYVSVR [BRR2] is higher in protein stability index: 2.63 ± 0.061 for the first, 2.99 ± 0.18 for the second.

Compared with LFSEKTIRYLMQKQHEM [SNF6], LGAIEQILIFAADTSIV [YJL039C/NUP192] is lower in protein stability index: 2.44 ± 0.069 for the first, 1.72 ± 0.091 for the second.

Compared with LGAVAGLIPYPHHNQSP [RET1], LGHTKAALGEVASMELK [SIR2] is higher in protein stability index: 2.69 ± 0.055 for the first, 3.23 ± 0.064 for the second.

Going from LGIEAARYSIIREINYT [RPO31] to LGKQSSSLLSRLISSKM [FAS2], the protein stability index rises from 1.31 ± 0.24 to 3.02 ± 0.078.

Going from LGKRINSAVNNAISNTQ [SRP54] to LGKRSILAAAHRDAYSG [PRE2], the protein stability index falls from 2.91 ± 0.096 to 2.33 ± 0.18.

LGKYEFSKILPAALDGL [ESC2] and LGLCCLLDVKLAIDNMY [YCG1] are within error of each other in protein stability index: 1.61 ± 0.13 for the first, 1.78 ± 0.067 for the second.

Going from LGLLLPIAASTDLPIET [RPN1] to LGNSIVKESNNYYSNKS [REC8], the protein stability index rises from 1.79 ± 0.076 to 2.94 ± 0.3.

Compared with LGRLVKAGKITTIEEIF [RPS2], LGRTGSRGGVTQVRVEF [RPS28A] is higher in protein stability index: 2.16 ± 0.14 for the first, 3.31 ± 0.047 for the second.

First: LGTLVNQKTSAVAALTE [RPL8A]
Second: LGTVQREIESLIAEETN [SMC3]
The protein stability index of the first is lower: 2.4 ± 0.15 for the first, 3.01 ± 0.12 for the second.

Going from LGVIHKGNLLEGKKVMA [RPN2] to LHKIFYKVLKNNGLPEC [YCG1], the protein stability index rises from 1.17 ± 0.11 to 2.45 ± 0.049.

Going from LHKLELKAKNQEEEGEL [DSN1] to LHKNFESENFKIIALQP [RGR1], the protein stability index falls from 3.37 ± 0.14 to 2.7 ± 0.06.

First: LHKRQQFSESTHNDIDS [YJL039C/NUP192]
Second: LHYTPIEDLWQFLYEKH [RPC82]
The protein stability index of the first is higher: 2.78 ± 0.051 for the first, 2.14 ± 0.12 for the second.

Going from LIELLEKLDVSRSSVCV [YCG1] to LIELSGGQRSLIALSLI [SMC2], the protein stability index falls from 2.05 ± 0.08 to 1.86 ± 0.1.

Compared with LIETVRQMKDVNAPLPT [RPN2], LIGCIDEAKDFIVSGTA [PUP3] is lower in protein stability index: 2.9 ± 0.05 for the first, 2.66 ± 0.053 for the second.

LIITRKAFKNNSSKYYI [SMC4] and LILRDFLNNGEVDSASD [RPN3] are within error of each other in protein stability index: 2.66 ± 0.068 for the first, 2.63 ± 0.23 for the second.

Compared with LILSGDTTANNGKVQYF [YJL039C/NUP192], LINLKISPLMKSQYNMV [SRB8] is lower in protein stability index: 2.9 ± 0.09 for the first, 2.07 ± 0.14 for the second.

First: LIRPSSKVIIKFLQVMQ [RPS22A]
Second: LISRLCPNSTGAELRSV [RPT1]
The protein stability index of the first is higher: 2.02 ± 0.052 for the first, 1.84 ± 0.073 for the second.

First: LIVIDVVEGVTFVVEQL [SNU114]
Second: LIYGISDEERDDEDDEH [AAR2]
The protein stability index of the first is lower: 2.56 ± 0.082 for the first, 3.52 ± 0.066 for the second.

LKFFLVDENETVLESLG [LIN1] and LKFLYLLDAYSHIESDS [MED1] are within error of each other in protein stability index: 2.9 ± 0.18 for the first, 2.8 ± 0.061 for the second.

Going from LKFMAASEVATHSKLFA [PRP8] to LKGLLQELKADSPFSLI [SRP72], the protein stability index falls from 2.78 ± 0.062 to 2.42 ± 0.092.

Compared with LKKIASIPNLFPTDLEI [SWI1], LKKLEKFMELERKTLER [SWI3] is higher in protein stability index: 2.55 ± 0.053 for the first, 3.18 ± 0.046 for the second.

LKKLKAMNDACYEKVLE [BRR2] and LKLGLVEYLDVNEENDS [RET1] are within error of each other in protein stability index: 3.12 ± 0.039 for the first, 3.16 ± 0.071 for the second.

Compared with LKLSQAFGSSATDISGE [YJR042W/NUP85], LKNLRKKLNFKLCQAFM [YJR042W/NUP85] is lower in protein stability index: 2.56 ± 0.059 for the first, 1.61 ± 0.15 for the second.

First: LKNVNKRAFENFKKFNE [SMC3]
Second: LKQEGAANKTVVVVGTV [RPL18A]
The protein stability index of the first is lower: 1.91 ± 0.094 for the first, 2.51 ± 0.11 for the second.

Going from LKSSLADVLSILAMTYS [RPN1] to LKSTKHSISEAENMLEE [SMC4], the protein stability index rises from 1.89 ± 0.19 to 3.06 ± 0.077.

Going from LKTFHFAGVASMNVTLG [RPO31] to LKVLSGDEGYNEDMVRR [SNF12], the protein stability index rises from 2.34 ± 0.093 to 3.25 ± 0.095.

LKVTKKHGAKKVAKRTK [RPL27A] and LKYSKRRSLKKQGRIKN [CSN12] are within error of each other in protein stability index: 3.39 ± 0.11 for the first, 3.21 ± 0.098 for the second.

Going from LLAQLNGTVNNNSALSN [RPT3] to LLATKQHDSSANEDEEE [CSN12], the protein stability index rises from 1.88 ± 0.097 to 2.72 ± 0.086.

First: LLCDKAQKNTQSYGGRP [PRE5]
Second: LLDKYGKTGLSNMILGS [YML103C/NUP188]
The protein stability index of the first is higher: 3.37 ± 0.092 for the first, 2.26 ± 0.095 for the second.

LLDRILPKLKATGHRVL [SNF2] and LLERTREIHNEAESQLR [FAS2] are within error of each other in protein stability index: 2.3 ± 0.08 for the first, 2.21 ± 0.22 for the second.

First: LLIDQFSPVISQSLTSI [SWI1]
Second: LLIIRSLKNTDALLNST [YJL039C/NUP192]
The protein stability index of the first is lower: 1.64 ± 0.11 for the first, 2.37 ± 0.14 for the second.

First: LLKKELLTIEPKLKEAT [SMC2]
Second: LLKLTKVFIRESLSLKN [YML103C/NUP188]
The protein stability index of the first is higher: 3.11 ± 0.046 for the first, 1.3 ± 0.22 for the second.

LLLSRVRADDLSTRFNI [RRP43] and LLMRLEGNYRNLNNLKQ [RPB8] are within error of each other in protein stability index: 3.02 ± 0.06 for the first, 3.22 ± 0.2 for the second.

First: LLNEWSHNVDELLEHIE [RPN5]
Second: LLPTNNGQPLNQNFSLT [GRR1]
The protein stability index of the first is lower: 2.13 ± 0.19 for the first, 2.81 ± 0.045 for the second.

Compared with LLRALKTNEESAKMILL [PRP8], LLRLASKSTSMKLSMPP [POP1] is lower in protein stability index: 2.86 ± 0.071 for the first, 2.69 ± 0.059 for the second.

First: LLRQKIEQCKHPLHELI [ISW2]
Second: LLSDPTITIKSYHLWPS [PRP8]
The protein stability index of the first is lower: 1.45 ± 0.22 for the first, 2.53 ± 0.094 for the second.

Going from LLTLTNAANVPVENIWA [RPP1A] to LLTNDESAFENLMGNRN [SNF12], the protein stability index rises from 2.48 ± 0.11 to 3 ± 0.19.

Going from LLTNFHGMDFTTDKLRS [RPS1A] to LLWLVLIHPENFTCNRK [SWI1], the protein stability index falls from 2.84 ± 0.097 to 2.38 ± 0.064.

LMTFNAETKSYDSRGVG [YLR335W/NUP2] and LMVFNDDTKNQDSMSKG [YGR119C/NUP57] are within error of each other in protein stability index: 2.74 ± 0.054 for the first, 2.94 ± 0.18 for the second.

First: LNAELESKLIPQENDLE [SMC3]
Second: LNATKISPSAPSKDSFT [YAR002W/NUP60]
The protein stability index of the first is higher: 3.23 ± 0.075 for the first, 2.94 ± 0.052 for the second.

Going from LNDEYNYPQLTEDILKE [YCS4] to LNDLNHLLVQLQKNDVY [REC8], the protein stability index falls from 3 ± 0.071 to 2.47 ± 0.058.

Compared with LNDRFQTLSSHLEALQP [PGD1], LNDRQEEISRLQRDLIQ [YIL149C/MLP2] is higher in protein stability index: 2.63 ± 0.04 for the first, 3.07 ± 0.26 for the second.

First: LNEAPFPEENIIDAKTR [MCD1]
Second: LNELKAIKDKLEQDLHF [YIL149C/MLP2]
The protein stability index of the first is higher: 3.136 ± 0.031 for the first, 2.82 ± 0.07 for the second.

LNENARELEQIKPKIAL [SNF12] showed a protein stability index of 2.64 ± 0.25.

same assay, conditions: ubr1∆

In the case of LESIQKTKEAVAALKAV [RPL4A], the protein stability index is reported as 2.88 ± 0.17.
